Measured values: paper PMC12485084

Biological target: 3xFLAG-TurboID-CaM C-lobe (human)
Experiment: proximity labelling

Chain of 3xFLAG-WT human TRPA1 (Transient Receptor Potential Ankyrin subtype 1) (O75762 whole entry): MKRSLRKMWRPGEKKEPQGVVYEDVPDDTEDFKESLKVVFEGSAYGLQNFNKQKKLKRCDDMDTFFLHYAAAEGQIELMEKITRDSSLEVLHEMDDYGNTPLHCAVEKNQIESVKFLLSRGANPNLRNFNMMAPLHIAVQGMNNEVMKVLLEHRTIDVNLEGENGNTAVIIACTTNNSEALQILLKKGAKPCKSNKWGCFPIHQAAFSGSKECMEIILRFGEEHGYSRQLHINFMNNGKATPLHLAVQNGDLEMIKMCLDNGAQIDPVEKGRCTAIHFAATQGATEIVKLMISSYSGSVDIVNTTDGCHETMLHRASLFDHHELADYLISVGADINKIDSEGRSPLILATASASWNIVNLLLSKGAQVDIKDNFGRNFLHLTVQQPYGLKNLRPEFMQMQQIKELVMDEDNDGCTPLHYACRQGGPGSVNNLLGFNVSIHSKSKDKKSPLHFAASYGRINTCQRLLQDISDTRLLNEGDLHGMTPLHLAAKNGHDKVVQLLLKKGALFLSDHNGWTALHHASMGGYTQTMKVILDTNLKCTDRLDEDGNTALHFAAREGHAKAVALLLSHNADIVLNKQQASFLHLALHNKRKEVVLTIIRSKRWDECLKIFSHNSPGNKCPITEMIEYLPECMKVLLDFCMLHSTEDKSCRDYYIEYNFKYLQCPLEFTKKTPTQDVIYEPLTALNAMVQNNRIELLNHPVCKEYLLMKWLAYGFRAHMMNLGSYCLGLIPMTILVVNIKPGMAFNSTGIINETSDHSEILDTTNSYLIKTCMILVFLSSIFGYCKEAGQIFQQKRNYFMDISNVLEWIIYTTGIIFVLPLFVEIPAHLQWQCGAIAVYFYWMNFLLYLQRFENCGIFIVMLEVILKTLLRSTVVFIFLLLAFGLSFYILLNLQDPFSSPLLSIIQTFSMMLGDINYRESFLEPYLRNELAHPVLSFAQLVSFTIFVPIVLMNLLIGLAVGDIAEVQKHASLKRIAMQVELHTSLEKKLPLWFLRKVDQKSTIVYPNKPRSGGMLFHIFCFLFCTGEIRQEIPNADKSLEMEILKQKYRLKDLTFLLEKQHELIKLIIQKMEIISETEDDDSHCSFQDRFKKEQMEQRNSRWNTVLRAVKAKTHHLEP

percent increase in biotinylation with TurboID-CaM C-lobe versus free TurboID: 40%
Substance: 3xFLAG-WT human TRPA1 (Transient Receptor Potential Ankyrin subtype 1) (from UniProt O75762 1-1119) (natural protein)
